These results are taken from patent US7858298 (PROGENICS PHARMACEUTICALS, dated 2010).

The target in assay [1] is T1, recombinant soluble human CD4 (human, UniProt P01730 26-396).
T1 construct: also called sCD4; soluble CD4
The experiment in a line: flow cytometry on human CCR5-bearing murine L1.2 cells (data not shown). For orientation: A flow cytometer gives signals particle by particle.

For assay [2], the target named is T2, complex formed between sCD4 and biotinylated HIV-1LAI gp120 (HIV-1 LAI (BRU); human, UniProt P03377 33-516; P01730 26-396).
T2 construct: also called b-LAI:sCD4
The assay is described as above.

B1: human CCR5 expressed on the cell surface (receptor)
chain: not shown
notes: whole, on cells; also called C-C CKR-5; CKR-5
For B1, the binding result in assay [1] and in assay [2] was “no binding” each time.
